In PMC6707742:

Target: coagulation factor IXa (FIXa) (human, UniProt P00740;P00740 47-191;227-461)
Assay: SPR

Sequence of coagulation factor IXa (FIXa) (P00740 47-191, chain 1 of 2): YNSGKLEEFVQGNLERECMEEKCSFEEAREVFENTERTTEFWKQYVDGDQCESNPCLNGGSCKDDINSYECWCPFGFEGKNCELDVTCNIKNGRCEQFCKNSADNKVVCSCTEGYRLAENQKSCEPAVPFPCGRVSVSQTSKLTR
Sequence of coagulation factor IXa (FIXa) (P00740 227-461, chain 2 of 2): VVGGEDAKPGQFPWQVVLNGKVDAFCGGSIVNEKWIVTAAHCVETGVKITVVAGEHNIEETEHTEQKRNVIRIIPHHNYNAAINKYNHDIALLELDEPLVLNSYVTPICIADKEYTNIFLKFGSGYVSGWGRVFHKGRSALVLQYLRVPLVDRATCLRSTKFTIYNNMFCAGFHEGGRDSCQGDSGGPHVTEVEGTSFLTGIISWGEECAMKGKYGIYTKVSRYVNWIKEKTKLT

B1: RB006 (XNA)
RNA: GUGGACUAUACCGCGUAAUGCUGCCUCCAC
modifications: 5' 40 kDa branched mPEG; uppercase 2'-F, lowercase 2'-OMe in GUGGAcuAuAccGcGuAAuGcU(G)CcuCCAC; (G) unmodified; 3' inverted dT
binding result: binds
